{"source": "patent US20050221292A1", "key": {"[1]": {"biological_target": "T1, F(MMP#2): Sendai virus F protein with the activation site modified to PLG↓MTS (UniProt P04855)", "T1 sequence": "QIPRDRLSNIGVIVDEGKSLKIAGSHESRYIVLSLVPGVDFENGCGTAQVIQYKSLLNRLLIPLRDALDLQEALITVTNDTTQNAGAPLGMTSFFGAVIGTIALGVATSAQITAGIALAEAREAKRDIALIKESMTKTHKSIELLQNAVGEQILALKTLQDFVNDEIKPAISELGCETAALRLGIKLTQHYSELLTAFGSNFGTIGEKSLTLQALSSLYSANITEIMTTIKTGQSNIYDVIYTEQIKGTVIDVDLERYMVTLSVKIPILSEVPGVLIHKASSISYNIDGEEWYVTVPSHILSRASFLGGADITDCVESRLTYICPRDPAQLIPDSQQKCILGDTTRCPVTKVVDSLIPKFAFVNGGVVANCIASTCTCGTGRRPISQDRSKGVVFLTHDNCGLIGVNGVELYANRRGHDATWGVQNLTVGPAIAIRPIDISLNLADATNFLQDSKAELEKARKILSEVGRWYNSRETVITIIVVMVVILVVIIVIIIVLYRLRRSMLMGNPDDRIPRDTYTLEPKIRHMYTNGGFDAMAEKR"}, "[2]": {"biological_target": "T2, F(uPA): Sendai virus F protein with the activation site modified to VGR (UniProt P04855)", "T2 sequence": "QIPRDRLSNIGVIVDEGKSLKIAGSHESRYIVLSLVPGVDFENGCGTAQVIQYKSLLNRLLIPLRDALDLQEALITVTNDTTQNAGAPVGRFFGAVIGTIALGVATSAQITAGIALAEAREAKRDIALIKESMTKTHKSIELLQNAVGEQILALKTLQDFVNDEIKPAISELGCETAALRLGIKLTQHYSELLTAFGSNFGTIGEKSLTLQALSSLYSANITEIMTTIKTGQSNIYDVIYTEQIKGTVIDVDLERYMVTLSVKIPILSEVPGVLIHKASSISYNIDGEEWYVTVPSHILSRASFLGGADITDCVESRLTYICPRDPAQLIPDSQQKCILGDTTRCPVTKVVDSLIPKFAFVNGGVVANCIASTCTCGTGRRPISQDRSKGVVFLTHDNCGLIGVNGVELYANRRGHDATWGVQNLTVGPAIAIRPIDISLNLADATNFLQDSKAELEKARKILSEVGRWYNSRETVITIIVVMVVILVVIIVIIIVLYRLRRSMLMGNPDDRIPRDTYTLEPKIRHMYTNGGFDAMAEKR"}, "[3]": {"biological_target": "T3, Fct14(MMP#6)/Linker/HN chimeric protein (UniProt P04855)", "T3 sequence": "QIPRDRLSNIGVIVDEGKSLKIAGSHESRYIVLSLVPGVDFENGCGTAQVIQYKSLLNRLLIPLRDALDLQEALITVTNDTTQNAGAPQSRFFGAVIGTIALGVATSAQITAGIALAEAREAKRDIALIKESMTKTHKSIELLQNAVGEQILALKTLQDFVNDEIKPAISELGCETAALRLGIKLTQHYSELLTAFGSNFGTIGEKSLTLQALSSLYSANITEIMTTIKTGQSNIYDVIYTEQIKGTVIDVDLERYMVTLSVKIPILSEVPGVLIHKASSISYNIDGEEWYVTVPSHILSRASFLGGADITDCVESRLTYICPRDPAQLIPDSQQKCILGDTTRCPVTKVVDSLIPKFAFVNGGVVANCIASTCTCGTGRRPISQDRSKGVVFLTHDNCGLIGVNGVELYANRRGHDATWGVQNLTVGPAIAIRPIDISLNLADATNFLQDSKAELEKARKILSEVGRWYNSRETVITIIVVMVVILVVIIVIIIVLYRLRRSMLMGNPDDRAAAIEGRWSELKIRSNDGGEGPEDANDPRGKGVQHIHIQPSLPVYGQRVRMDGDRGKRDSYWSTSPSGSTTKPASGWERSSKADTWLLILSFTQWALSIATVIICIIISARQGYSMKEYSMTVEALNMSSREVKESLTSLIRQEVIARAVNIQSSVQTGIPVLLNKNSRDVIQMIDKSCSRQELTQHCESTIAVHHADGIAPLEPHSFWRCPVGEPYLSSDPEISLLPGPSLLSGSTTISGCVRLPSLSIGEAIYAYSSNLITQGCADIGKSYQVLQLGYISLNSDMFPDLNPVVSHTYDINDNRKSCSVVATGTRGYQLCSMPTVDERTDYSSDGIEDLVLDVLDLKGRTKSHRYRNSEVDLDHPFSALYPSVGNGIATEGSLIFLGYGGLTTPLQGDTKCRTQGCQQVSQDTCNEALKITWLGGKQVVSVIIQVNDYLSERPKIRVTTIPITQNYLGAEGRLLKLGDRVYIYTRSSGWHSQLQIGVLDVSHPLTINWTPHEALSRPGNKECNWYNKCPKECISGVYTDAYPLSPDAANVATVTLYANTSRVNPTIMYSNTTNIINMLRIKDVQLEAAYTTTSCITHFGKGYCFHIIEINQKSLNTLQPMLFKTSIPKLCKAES"}, "[4]": {"biological_target": "T4, Sendai virus (SeV) F protein, wild type (unmodified F) (UniProt P04855)", "T4 sequence": "T2 sequence with V89Q, G90S"}}, "note": "Where a chain is given by its changes, count along the chain named."}
{"substance": "active MMP-9 (COSMO BIO)", "values": [{"measurement": "cleavage of F0 to F1 (Western blotting of protease-treated viral particles)", "setting": "[1]", "result": "MMP-9 cleaved that of the M-deficient SeV vector having the MMP#2 sequence inserted into the F protein"}]}
{"substance": "uPA (urokinase-type plasminogen activator)", "values": [{"measurement": "cleavage of F0 to F1 (Western blotting of protease-treated viral particles)", "setting": "[2]", "result": "uPA cleaved that of the M-deficient SeV vector having the uPA sequence inserted into the F protein"}, {"measurement": "syncytia formation in LLC-MK2 (exogenous protease)", "setting": "[2]", "result": "upon further modification of the F protein, showed the formation of syncytia, multinuclear cells, in the presence of uPA"}]}
{"substance": "type IV collagenase (Clostridium histolyticum) (ICN)", "values": [{"measurement": "fusogenicity (syncytium formation) relative to the MMP#2 chimera, against concentration of added collagenase", "setting": "[3]", "result": "MMP#6 was found to have two to three times higher fusogenicity compared to MMP#2"}]}
{"substance": "trypsin (Gibco-BRL)", "values": [{"measurement": "cleavage of F0 to F1 (Western blotting; data not shown)", "setting": "[2]", "result": "for the M-deficient SeV vector into which uPA sequence is inserted, cleavage of F1 was observed in the presence of trypsin when the degradation time was prolonged to four hours"}, {"measurement": "cleavage of F0 to F1 (Western blotting of protease-treated viral particles)", "setting": "[4]", "result": "trypsin cleaved the F protein of the F-unmodified M-deficient SeV vector"}]}
